Data reported in patent US20250289899A1 (Genmab, published 2025).

Experiments:
[1] = molecular target: T1, recombinant His-tagged human FcγRIIa (167-His [H]) (human, UniProt P12318 34-218, limits assumed); test: SPR (Biacore), His-tagged FcγRIIa-H captured on anti-His chip, antibody in solution, resonance units against antibody concentration
T1 construct: Bought; captured on anti-His chip; also called FcγRIIa-H; not shown: His tag
T1 sequence (looked up): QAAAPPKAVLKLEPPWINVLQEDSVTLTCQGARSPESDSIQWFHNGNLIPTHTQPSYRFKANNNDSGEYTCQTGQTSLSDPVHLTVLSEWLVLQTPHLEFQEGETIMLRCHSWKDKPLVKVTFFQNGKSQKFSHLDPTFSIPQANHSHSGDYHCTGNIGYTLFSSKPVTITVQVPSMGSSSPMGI

[2] = molecular target: T2, human CD27, full length, on cells (T cells, transfected HEK293F cells, Daudi cells, NFκB-luc2/CD27 Jurkat … (human, UniProt P26842 20-240)); test: flow cytometry on CD4+ T cells in human PBMC, FITC goat anti-human IgG F(ab')2, median FITC
T2 construct: Residues 1-19 are stated to be the signal peptide; also called TNFRSF7
T2 sequence: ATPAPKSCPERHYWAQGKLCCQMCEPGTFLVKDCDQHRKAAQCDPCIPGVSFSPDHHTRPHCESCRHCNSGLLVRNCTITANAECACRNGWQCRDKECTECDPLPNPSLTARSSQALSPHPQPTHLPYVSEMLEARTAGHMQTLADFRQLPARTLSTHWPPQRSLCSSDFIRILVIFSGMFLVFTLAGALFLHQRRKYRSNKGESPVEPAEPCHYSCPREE
Procedure: Binding of IgG1-CD27-A-P329R-E345R to CD27 on human healthy donor T cells was characterized in more detail using flow cytometry. Anti-HIV gp120 antibody variant IgG1-b12-P329R-E345R was used as non-binding control antibody (ctrl). Human PBMCs were isolated from buffy coats obtained from human healthy donors. PBMC (1×10⁵ cells/well) in FACS buffer were added to polystyrene 96-well round-bottom plates (Greiner bio-one, Cat #650101) and pelleted by centrifugation at 300×g for 3 min at 4° C. The cells were resuspended in 50 μL/well serial antibody dilutions in FACS buffer (range 0.0015 to 10 μg/mL in 3-fold dilution steps) and incubated for 30 min at 4° C. Cells were pelleted, washed twice with FACS buffer and incubated in 50 μL/well with FITC-conjugated secondary antibody (FITC AffiniPure F(ab′)₂ fragment goat anti-human IgG, F(ab′)₂ fragment specific, Jackson ImmunoResearch, Cat #109-096-097, diluted 1:100) for 30 min at 4° C. in the dark. […] The samples were measured by flow cytometry on an LSRFortessa (BD) flow cytometer and analyzed using FlowJo software. Binding curves were analyzed using non-linear regression (sigmoidal dose-response with variable slope) using GraphPad Prism 8 software.

[3] = molecular target: T3, recombinant His-tagged human FcγRIa (human, UniProt P12314 16-288, limits assumed); test: SPR (Biacore), His-tagged FcγRIa captured on anti-His chip, antibody in solution, resonance units against antibody concentration
T3 construct: Bought; captured on anti-His chip; not shown: His tag
T3 sequence (P12314 16-288 limits assumed): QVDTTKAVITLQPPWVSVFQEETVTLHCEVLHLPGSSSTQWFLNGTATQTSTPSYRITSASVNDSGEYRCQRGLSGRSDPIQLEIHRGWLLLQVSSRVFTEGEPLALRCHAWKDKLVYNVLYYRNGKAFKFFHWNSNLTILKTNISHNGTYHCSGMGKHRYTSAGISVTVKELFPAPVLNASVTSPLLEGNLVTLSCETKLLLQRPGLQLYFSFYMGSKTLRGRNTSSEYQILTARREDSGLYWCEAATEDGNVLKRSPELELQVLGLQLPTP
Procedure: Biacore surface chips were covalently linked with anti-His antibody and coated with recombinant His-tagged Fc receptors (A) FcγRIa, (B) FcγRIIa-H, (C) FcγRIIa-R, (D) FcγRIIb, (E) FcγRIIIa-F, or (F) FcγRIIIa-V. The anti-HIV-gp120 antibody IgG1-b12 (ctrl) was included as a reference. Shown are absolute resonance units as determined by Biacore SPR after background subtraction (no Fc receptor flow-cell).
Binding of IgG1-CD27-A-P329R-E345R to human FcγR variants was analyzed using a Biacore surface plasmon resonance (SPR) system and compared to an anti-HIV gp120 antibody IgG1-b12 (ctrl). Biacore Series S Sensor Chips CM5 (Cytiva, Cat #29104988) were covalently coated with anti-His antibody using amine-coupling and His capture kits (Cytiva, Cat #BR100050 and Cat #29234602) according to the manufacturer's instructions. […] After three cycles of buffer, antibody samples were injected for 36 cycles to generate binding curves using antibody ranges of 0-3,000 nM for FcγRI and 0-10,000 nM for the other FcγRs. Each sample that was analyzed on an FcR-coated surface (Active Surface) was also analyzed on a parallel flow-cell without FcR (Reference Surface), which was used for background correction. Dissociation from the anti-His-coated surface was performed by regeneration of the surface using 10 mM Glycine-HCl pH 1.5 (Cytiva, Cat #BR100354). […]

[4] = molecular target: T4, recombinant His-tagged human FcγRIIIa (176-Phe [F]) (human, UniProt P08637 17-208); test: SPR (Biacore), His-tagged FcγRIIIa-F captured on anti-His chip, antibody in solution, resonance units against antibody concentration
T4 construct: Bought; captured on anti-His chip; also called FcγRIIIa-F; not shown: His tag
T4 sequence (P08637 17-208 limits assumed): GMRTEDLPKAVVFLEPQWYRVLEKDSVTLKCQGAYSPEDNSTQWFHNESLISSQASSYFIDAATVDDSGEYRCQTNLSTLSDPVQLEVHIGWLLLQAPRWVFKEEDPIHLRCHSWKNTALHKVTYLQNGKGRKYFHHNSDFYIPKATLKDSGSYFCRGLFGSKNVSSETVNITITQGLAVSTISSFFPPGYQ

[5] = molecular target: T5, recombinant His-tagged human FcγRIIIa (176-Val [V]) (human, UniProt P08637 17-208); test: SPR (Biacore), His-tagged FcγRIIIa-V captured on anti-His chip, antibody in solution, resonance units against antibody concentration
T5 construct: Bought; captured on anti-His chip; also called FcγRIIIa-V; not shown: His tag
T5 sequence (P08637 17-208 F176V limits assumed): as the sequence (P08637 17-208 limits assumed) above, with F160V counted along it

binding result [1]: no binding (tested: 10,000 nM)
EC50 (read off the curve) [2]: ~0.03 µg/mL
binding result [3]: binds
binding result [4]: no binding (tested: 10,000 nM)
binding result [5]: no binding (tested: 10,000 nM)
B1: IgG1-CD27-A-P329R-E345R (antibody)
heavy: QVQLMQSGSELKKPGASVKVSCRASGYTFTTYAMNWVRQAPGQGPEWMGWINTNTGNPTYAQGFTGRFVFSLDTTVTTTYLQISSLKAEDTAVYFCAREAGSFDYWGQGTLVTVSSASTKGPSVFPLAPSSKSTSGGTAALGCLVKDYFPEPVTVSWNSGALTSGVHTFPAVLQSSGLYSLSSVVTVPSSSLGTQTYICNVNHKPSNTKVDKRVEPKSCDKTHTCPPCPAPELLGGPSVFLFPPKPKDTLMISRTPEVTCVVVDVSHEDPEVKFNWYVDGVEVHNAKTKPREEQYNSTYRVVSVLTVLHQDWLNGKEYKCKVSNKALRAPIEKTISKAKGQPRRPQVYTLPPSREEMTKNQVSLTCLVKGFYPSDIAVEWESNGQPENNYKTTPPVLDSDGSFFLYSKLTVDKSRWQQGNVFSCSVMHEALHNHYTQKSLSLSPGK
light: QSALTQPASVSGSPGQSITISCTGTSSDVYYYNYVSWYQQHPGRAPKLVIYDVSNRPSGVSNRFSGSKSGNTASLTISGLRAEDEADYYCSSYTVNRVWVFGGGTKLTVLGQPKAAPSVTLFPPSSEELQANKATLVCLISDFYPGAVTVAWKADSSPVKAGVETTTPSKQSNNKYAASSYLSLTPEQWKSHRSYSCQVTHEGSTVEKTVAPTECS
notes: also called IgG1-CD27-A-E345R-P329R
